# Test results published in patent US20170058268.
# What was measured:
# Assay in all cases: cell_activity
# Conditions in all cases: E. coli, bisulfite
# [1] = target: Split M.SssI-HS1/HS2 variant CFESY K297C,N299E,E301Y (Spiroplasma sp. (M.SssI)?) (UniProt P15840)
# [2] = target: Split M.SssI-HS1/HS2 variant PFCSY K297P,N299C,E301Y (Spiroplasma sp. (M.SssI)?) (UniProt P15840+P15840)
# [3] = target: Split M.SssI (1-272)-HS1 / HS2-M.SssI (273-386), 'wild-type' KFNSE at 297-301 (Spiroplasma sp. (M.SssI)?) (UniProt P15840)
# Split M.SssI (1-272)-HS1 / HS2-M.SssI (273-386), 'wild-type' KFNSE at 297-301 (Spiroplasma sp. (M.SssI)?), sequence (P15840 other isoform, or with tags, fused parts or gaps, chain 1 of 2): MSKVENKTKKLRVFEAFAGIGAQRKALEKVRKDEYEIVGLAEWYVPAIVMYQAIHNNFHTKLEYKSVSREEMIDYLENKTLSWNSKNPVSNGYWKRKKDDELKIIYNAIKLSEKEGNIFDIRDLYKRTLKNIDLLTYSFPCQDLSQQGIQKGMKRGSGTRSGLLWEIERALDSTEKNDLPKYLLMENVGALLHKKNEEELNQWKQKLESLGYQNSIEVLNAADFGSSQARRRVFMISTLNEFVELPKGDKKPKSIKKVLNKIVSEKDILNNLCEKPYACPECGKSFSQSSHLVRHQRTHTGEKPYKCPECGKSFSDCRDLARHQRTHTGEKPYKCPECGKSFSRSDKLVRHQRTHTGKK
# Split M.SssI (1-272)-HS1 / HS2-M.SssI (273-386), 'wild-type' KFNSE at 297-301 (Spiroplasma sp. (M.SssI)?), sequence (P15840 other isoform, or with tags, fused parts or gaps, chain 2 of 2): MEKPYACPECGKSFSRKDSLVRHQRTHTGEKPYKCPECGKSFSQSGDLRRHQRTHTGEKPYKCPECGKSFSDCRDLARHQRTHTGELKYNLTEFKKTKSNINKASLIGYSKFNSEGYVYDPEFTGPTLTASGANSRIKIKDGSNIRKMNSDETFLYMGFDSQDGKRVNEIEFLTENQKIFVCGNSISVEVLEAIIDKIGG
# Split M.SssI-HS1/HS2 variant PFCSY K297P,N299C,E301Y (Spiroplasma sp. (M.SssI)?), sequence (P15840 whole entry, stated change not applied, chain 1 of 2): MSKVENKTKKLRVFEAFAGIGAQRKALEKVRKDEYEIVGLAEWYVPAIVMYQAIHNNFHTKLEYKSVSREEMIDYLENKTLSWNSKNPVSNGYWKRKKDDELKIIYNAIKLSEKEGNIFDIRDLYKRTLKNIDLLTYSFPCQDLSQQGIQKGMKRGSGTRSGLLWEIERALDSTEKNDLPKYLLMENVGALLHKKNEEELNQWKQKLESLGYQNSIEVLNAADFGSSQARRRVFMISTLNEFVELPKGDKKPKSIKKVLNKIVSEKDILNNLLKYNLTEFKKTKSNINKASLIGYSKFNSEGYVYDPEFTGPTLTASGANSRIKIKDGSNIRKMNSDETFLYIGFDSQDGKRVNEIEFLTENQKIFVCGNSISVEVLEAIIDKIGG
# Split M.SssI-HS1/HS2 variant PFCSY K297P,N299C,E301Y (Spiroplasma sp. (M.SssI)?), sequence (P15840 whole entry, stated change not applied, chain 2 of 2): as the sequence (P15840 whole entry, stated change not applied, chain 1 of 2) above
# Split M.SssI-HS1/HS2 variant CFESY K297C,N299E,E301Y (Spiroplasma sp. (M.SssI)?), sequence (P15840 other isoform, or with tags, fused parts or gaps K297C N299E E301Y, chain 1 of 2): as the sequence (P15840 other isoform, or with tags, fused parts or gaps, chain 1 of 2) above
# Split M.SssI-HS1/HS2 variant CFESY K297C,N299E,E301Y (Spiroplasma sp. (M.SssI)?), sequence (P15840 other isoform, or with tags, fused parts or gaps K297C N299E E301Y, chain 2 of 2): as the sequence (P15840 other isoform, or with tags, fused parts or gaps, chain 2 of 2) above, with K111C, N113E, E115Y counted along it
Substance,"activity ([1]; 70-80% by restriction protection, also target-only methylation in HEK293) [% methylated]",activity [2] [% methylated],activity [3] [% methylated],activity ([1]; all off-target CpGs) [% methylated],activity ([2]; all off-target CpGs) [% methylated],activity ([3]; all off-target CpGs) [% methylated]
"HS1/HS2 target site (FspI CpG flanked by HS1 and HS2 sites, plasmid)",42.1,78.9,94.1,–,–,–
"Non-target site (SnaBI CpG or surrounding CpGs, no ZF sites, plasmid)",–,–,–,0.71,0.84,49.5
